Laboratory results as given in publication PMC10648297.

Biological target: 2-cysteine (Cys) peroxiredoxin A, recombinant mature wild type, tag-free (Arabidopsis)
Test: LC/MS of the intact protein (deconvoluted masses); oxidised 2CPA with 0 to 19.2 mM GSH and NEM, 50 mM Tris pH 7.5, 25 °C; C4 column, acetonitrile gradient with 0.1% HCOOH; shows disulfide-linked dimers

With “2-cysteine (Cys) peroxiredoxin A, recombinant mature wild type, tag-free (enzyme)” the stoichiometry N was 2.
